Assay results taken from EP4772193A1 (Teijin Pharma Limited, dated 2026).
Changes are numbered by the printed parent chain. Names may count otherwise.

T1: recombinant human soluble gpNMB (recombinant human gpNMB-FLAG-His) (human, UniProt Q14956 23-498)
T1 sequence: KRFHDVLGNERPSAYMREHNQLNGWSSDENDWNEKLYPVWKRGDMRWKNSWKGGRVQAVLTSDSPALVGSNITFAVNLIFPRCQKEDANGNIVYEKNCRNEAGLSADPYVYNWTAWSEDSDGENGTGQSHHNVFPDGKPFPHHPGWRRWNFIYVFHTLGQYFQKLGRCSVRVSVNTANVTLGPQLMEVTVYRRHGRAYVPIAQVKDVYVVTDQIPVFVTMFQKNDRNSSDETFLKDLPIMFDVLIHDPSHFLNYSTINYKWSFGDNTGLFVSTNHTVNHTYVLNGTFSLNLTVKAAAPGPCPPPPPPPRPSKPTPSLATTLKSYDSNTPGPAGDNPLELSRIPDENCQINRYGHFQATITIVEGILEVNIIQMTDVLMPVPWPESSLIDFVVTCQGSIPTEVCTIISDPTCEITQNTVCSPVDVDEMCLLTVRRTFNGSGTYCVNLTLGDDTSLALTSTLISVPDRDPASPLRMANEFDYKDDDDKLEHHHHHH

B1: hGPN06-1_H1L1 VH N63A (antibody, V domains shown)
VH: QVQLVQSGAEVKKPGASVKVSCKASGYTFTDNWMGWVKQRPGQGLEWIGAIDPSDSFTNYNQAFKGRVTMTVDTSISTAYMELSRLRSDDSAVYFCTRSGYYGSPKLGGDYWGQGTLVTVSS
VL: EIVLTQSPSSLSASVGDRVTITCSASSSISYMHWYQQKSGTAPKLLIYSTSNLASGVPSRFSGSGSGTDFTFTISSLQPEDAATYYCHQWNSYPCTFGGGTKLEIK
B2: hGPN06-1_H1L1 VH S54A (antibody, V domains shown)
VH: B1 VH with S54A, A63N
VL: B1 VL
B3: hGPN06-1_H1L1 VH W33A (antibody, V domains shown)
VH: B1 VH with W33A, A63N
VL: B1 VL
B4: hGPN06-1_H1L1 VH T58A (antibody, V domains shown)
VH: B1 VH with T58A, A63N
VL: B1 VL
B5: hGPN06-1_H1L1 VH T30A (antibody, V domains shown)
VH: B1 VH with T30A, A63N
VL: B1 VL
B6: hGPN06-1_H1L1 VH Q62A (antibody, V domains shown)
VH: B1 VH with Q62A, A63N
VL: B1 VL
B7: hGPN06-1_H1L1 VH T28A (antibody, V domains shown)
VH: B1 VH with T28A, A63N
VL: B1 VL
B8: hGPN06-1_H1L1 VH P53A (antibody, V domains shown)
VH: B1 VH with P53A, A63N
VL: B1 VL
B9: hGPN06-1_H1L1 VH Y60A (antibody, V domains shown)
VH: B1 VH with Y60A, A63N
VL: B1 VL
B10: hGPN06-1_H1L1 VH S56A (antibody, V domains shown)
VH: B1 VH with S56A, A63N
VL: B1 VL
B11: hGPN06-1_H1L1 VH Y27A (antibody, V domains shown)
VH: B1 VH with Y27A, A63N
VL: B1 VL
B12: hGPN06-1_H1L1 VL S26A (antibody, V domains shown)
VH: B1 VH with A63N
VL: B1 VL with S26A
B13: hGPN06-1_H1L1 VL S92A (antibody, V domains shown)
VH: B1 VH with A63N
VL: B1 VL with S92A
B14: hGPN06-1_H1L1 VL P94A (antibody, V domains shown)
VH: B1 VH with A63N
VL: B1 VL with P94A
B15: hGPN06-1_H1L1 VL S51A (antibody, V domains shown)
VH: B1 VH with A63N
VL: B1 VL with S51A
B16: hGPN06-1_H1L1 VL L53A (antibody, V domains shown)
VH: B1 VH with A63N
VL: B1 VL with L53A
B17: hGPN06-1_H1L1 VL S27A (antibody, V domains shown)
VH: B1 VH with A63N
VL: B1 VL with S27A
B18: hGPN06-1_H1L1 VL C95A (antibody, V domains shown)
VH: B1 VH with A63N
VL: B1 VL with C95A
B19: hGPN06-1_H1L1 VL S24A (antibody, V domains shown)
VH: B1 VH with A63N
VL: B1 VL with S24A
B20: hGPN06-1_H1L1 VL N52A (antibody, V domains shown)
VH: B1 VH with A63N
VL: B1 VL with N52A
B21: hGPN06-1_H1L1 VL Q89A (antibody, V domains shown)
VH: B1 VH with A63N
VL: B1 VL with Q89A
B22: hGPN06-1_H1L1 VL H88A (antibody, V domains shown)
VH: B1 VH with A63N
VL: B1 VL with H88A
B23: hGPN06-1_H1L1 VL S30A (antibody, V domains shown)
VH: B1 VH with A63N
VL: B1 VL with S30A
B24: hGPN06-1_H1L1 VL M32A (antibody, V domains shown)
VH: B1 VH with A63N
VL: B1 VL with M32A
B25: hGPN06-1_H1L1 VL S55A (antibody, V domains shown)
VH: B1 VH with A63N
VL: B1 VL with S55A
B26: hGPN06-1_H1L1 VL I29A (antibody, V domains shown)
VH: B1 VH with A63N
VL: B1 VL with I29A
B27: hGPN06-1_H1L1 VL S49A (antibody, V domains shown)
VH: B1 VH with A63N
VL: B1 VL with S49A
B28: hGPN06-1_H1L1 VL S28A (antibody, V domains shown)
VH: B1 VH with A63N
VL: B1 VL with S28A
B29: hGPN06-1_H1L1 VL H33A (antibody, V domains shown)
VH: B1 VH with A63N
VL: B1 VL with H33A
B30: hGPN06-1_H1L1 VL N91A (antibody, V domains shown)
VH: B1 VH with A63N
VL: B1 VL with N91A

target: T1, recombinant human soluble gpNMB …; experiment: antigen ELISA

EC50 | Binder
0.439 nM | B1
0.652 nM | B2
28.1 nM | B3
28 nM | B4
2.02 nM | B5
0.406 nM | B6
1.98 nM | B7
0.801 nM | B8
128 nM | B9
0.429 nM | B10
69.9 nM | B11

target: T1, recombinant human soluble gpNMB …; experiment: antigen ELISA; remark: another data set of the same source

EC50 | Binder
1.09 nM | B12
1.86 nM | B13
26.4 nM | B14
0.927 nM | B15
0.564 nM | B16
1.56 nM | B17
3.15 nM | B18
1.99 nM | B19
0.85 nM | B20
27.5 nM | B21
147 nM | B22
8.63 nM | B23
6.4 nM | B24
0.603 nM | B25
23 nM | B26
0.7 nM | B27
1.27 nM | B28
42.9 nM | B29
1.84 nM | B30

target: T1, recombinant human soluble gpNMB …; experiment: antigen ELISA, vs hGPN06-1_H1L1

Relative binding activity | Binder
1.07 | B1
0.92 | B2
0.06 | B3
0.04 | B4
1.23 | B5
1.14 | B6
1.49 | B7
0.85 | B8
0.04 | B9
1.14 | B10
0.02 | B11

target: T1, recombinant human soluble gpNMB …; experiment: antigen ELISA, vs hGPN06-1_H1L1; remark: another data set of the same source

Relative binding activity | Binder
0.75 | B12
0.19 | B13
0.05 | B14
0.82 | B15
0.98 | B16
0.99 | B17
0.45 | B18
0.98 | B19
0.74 | B20
0.06 | B21
0.08 | B22
0.58 | B23
0.65 | B24
1 | B25
0.27 | B26
0.79 | B27
1.18 | B28
0.28 | B29
0.58 | B30
